Changes are numbered by the printed parent chain. In names and notes the source's numbering stands. Several values for one entry are separate records, joined by “and”; a condition that tells them apart may be missing. Equal values may be shown once. Entries after “also recorded” stand apart in the source; their conditions may differ. Read-outs that look alike come from different tables or passages of the source.
What was measured:
[1] = Enzymatic activity assay of AAR toward stearoyl-CoA (octadecanal by GC-MS); type: biochemical, Synechococcus elongatus PCC 7942
From the text: PCC 6803 and Synechocystis sp. […] The extraction step was repeated for three times.

[2] = ITC; for Kd: read-out: KD value, binding with stearoyl-CoA, presence of potassium ion (+K+, 200 mM KCl), N.D. = not detected; for binding of AAR mutant with stearoyl-CoA (in words): +K+
Description: (§1) The binding affinity of AAR with ADO or stearoyl-CoA was measured by isotheral titration calorimetry (ITC) using a MicroCal Auto-ITC200 microcalorimeter (GE Healthcare Bio-sciences, Pittsburgh, PA). […] Wild type or mutants of ADO (or AAR) were placed into the sample cell (200 µL working volume) at a final concentration of 30 µM (60 µM for AAR) and was titrated with successive 2-µL injections of AAR protein with concentration of 500 µM (or ADO protein with concentration of 1 mM). Titrating AAR (500 µM) or ADO (1 mM) into the same buffer was performed as a control to determine the background correction. […] Injection of stearyol-CoA into the reaction buffer was performed as control to determine background correction.

[3] = for heptadecane product yield of wild-type ADO compared with triple mutant E196A/E200A/D201A of ADO: both incubated with AAR
Description: For measuring the enzymatic activity of AAR, the AAR protein at the concentration of 20 µM was mixed with 2 mM NADPH and 0.5 mM stearoyl-CoA in a 100 µL reaction buffer containing 20 mM HEPES pH 7.5, 200 mM KCl, 0.5 mM MgCl2, and 0.5 mM TCEP. […] The ferrodoxin and FNR are recombinant proteins from cyanobacterial strains Synechocystis sp. […] PCC 7942, respectively, and were added into the reaction buffer for supplying electrons for the reduction of ADO. The mixture was incubated at 30 °C for 5 h. The produced octadecanal and heptadecane were extracted by addition of an equal volume of ethyl acetate (Sigma Aldrich, HPLC grade) and centrifuged at 13,000 × g for 15 min at room temperature. The extraction step was repeated for three times. The extracted supernatant was pooled together, dried with nitrogen gas, and then resolved in 20 µL ethyl acetate for the GC-MS measurement.
The concentration of octadecanal and heptadecane was measured using an Agilent 7890 A gas chromatograph coupled with an Agilent 7000B QQQ mass spectrometer. A total of 2 µL sample was loaded with the helium as the carrier gas onto the chromatographic column HP-5ms (30 mM × 0.25 mM ID, 0.25 μm; Agilent) at the flow rate of 1.3 ml min^−1. The injector temperature maintained at 300 °C with spotless mode. The GC oven settings were as follows: initial temperature 75 °C, held for 5 min, then at 40 °C min^−1, increased to 325 °C and held for 5 min. Ionization mode of EI (70 eV, 230 °C) and full scan of 50–550 m/z were chosen for MS detection. The standard curve was plotted based on the measuring of the commercial octadecanal and heptadecane (Sigma Aldrich) at a gradient concentration (from 3.125 to 75 µg mL^−1). Data were acquired and processed using MassHunter Workstation Software and the NIST database.

[4] = biological target: T1, aldehyde-deformylating oxygenase from Synechococcus elongatus PCC 7942, wild type, His-tag removed (Synechococcus elongatus PCC 7942, UniProt Q54764 1-231); assay: ITC
T1 chain: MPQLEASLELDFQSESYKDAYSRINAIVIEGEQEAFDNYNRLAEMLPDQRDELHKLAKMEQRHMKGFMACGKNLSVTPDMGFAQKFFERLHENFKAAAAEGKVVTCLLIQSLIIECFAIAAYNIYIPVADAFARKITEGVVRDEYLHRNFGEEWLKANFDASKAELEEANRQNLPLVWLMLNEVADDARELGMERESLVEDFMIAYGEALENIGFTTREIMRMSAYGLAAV

[5] = biological target: T2, acyl-acyl carrier protein (acyl-ACP) reductase from Synechococcus elongatus PCC 7942, wild type, His-tag … (Synechococcus elongatus PCC 7942, UniProt Q54765 1-341); assay: ITC; ADO (wild type or mutant) in the sample cell at 30 µM, titrated with 2-µL injections of 500 µM AAR; 25 mM Tris-HCl pH 7.5, 1 mM TCEP; settings: both partners purified
T2 construct: acyl-ACP reductase (AAR), Synechococcus elongatus PCC 7942, gene Synpcc7942_1594; complete protein of 341 residues; after TEV cleavage ENLYFQ probably stays at the C-terminus (surmised); also called AAR; SeAAR; not shown: His6, C-terminal, cleaved
T2 sequence (looked up): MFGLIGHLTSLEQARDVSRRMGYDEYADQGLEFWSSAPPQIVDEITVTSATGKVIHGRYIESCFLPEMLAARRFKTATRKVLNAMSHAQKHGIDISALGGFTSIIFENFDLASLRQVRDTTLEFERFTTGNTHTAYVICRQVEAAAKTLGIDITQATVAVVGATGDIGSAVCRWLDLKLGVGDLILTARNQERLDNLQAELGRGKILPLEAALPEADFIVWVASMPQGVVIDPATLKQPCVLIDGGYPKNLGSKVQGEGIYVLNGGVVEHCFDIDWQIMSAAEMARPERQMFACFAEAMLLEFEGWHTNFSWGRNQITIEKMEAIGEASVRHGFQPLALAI

AAR = biological target: T3, AAR (Synechococcus elongatus, UniProt Q54765); assay: ITC binding of ADO (wild type and mutants) with AAR; parameters: species or system Synechococcus elongatus PCC 7942
T3 construct: modeled the complete AAR protein containing 341 amino acid residues; 22-residue C-terminal peptide with His6 (G + […]) (C, cleaved yes); made in house; host or cells: E. coli BL21(DE3) co-transformed with chaperone plasmid pG-KJE8
T3 sequence (Q54765 1-341): T2 sequence (looked up)
Description: as §1

ADO = biological target: T4, ADO (Synechococcus elongatus, UniProt Q54764); assay: ITC binding of AAR (wild type and mutants) with ADO; parameters: species or system Synechococcus elongatus PCC 7942
T4 construct: His6-tag peptide (C, cleaved yes); made in house; host or cells: E. coli BL21(DE3), without chaperone plasmid
T4 sequence (Q54764 1-231): T1 chain
Description: as §1

Molecule: AAR wild type: acyl-acyl carrier protein reductase from Synechococcus elongatus PCC 7942, wild type recombinant protein
- Octadecanal yield, single data (data1-data3) [1]: 5.8 and 7.04 and 5.2
- binding between AAR and stearoyl-CoA for AAR incubated with NADPH (in words) [2]: not significantly affected by NADPH
- Kd ([2]; listed as AAR): 0.09 µM
- Kd ([2]; listed as apo-AAR): ~0.09 µM

Molecule: ADO wild type: aldehyde-deformylating oxygenase from Synechococcus elongatus PCC 7942, wild type recombinant protein
- heptadecane product yield of wild-type ADO compared with triple mutant E196A/E200A/D201A of ADO ([3]; listed as wild type ADO): more than twice
- heptadecane product yield of wild-type ADO compared with triple mutant E196A/E200A/D201A of ADO ([3]; listed as wild-type ADO): two times more product

B1: acyl-acyl carrier protein (acyl-ACP) reductase from Synechococcus elongatus PCC 7942, wild type, His-tag removed (enzyme)
chain: T2 sequence (looked up)
- Ka [4]: 496000 M⁻¹

B2: aldehyde-deformylating oxygenase from Synechococcus elongatus PCC 7942, D201A mutant (enzyme, UniProt Q54764 1-231, looked up)
chain: T1 chain with D201A
notes: aldehyde-deformylating oxygenase (ADO), Synechococcus elongatus PCC 7942, gene Synpcc7942_1593; Made by PCR on pET24a-ADO; also called ADO D201A; source: E. coli BL21(DE3), purified (same protocol as wild-type ADO); not shown: His6, C-terminal, cleaved
- Kd [5]: 4.9 ± 1.4 µM

B3: aldehyde-deformylating oxygenase from Synechococcus elongatus PCC 7942, E208A mutant (enzyme, UniProt Q54764 1-231, looked up)
chain: T1 chain with E208A
notes: aldehyde-deformylating oxygenase (ADO), Synechococcus elongatus PCC 7942, gene Synpcc7942_1593; Made by PCR on pET24a-ADO; also called ADO E208A; source: E. coli BL21(DE3), purified (same protocol as wild-type ADO); not shown: His6, C-terminal, cleaved
- Kd [5]: 14.8 ± 3.7 µM

B4: aldehyde-deformylating oxygenase from Synechococcus elongatus PCC 7942, E211A mutant (enzyme, UniProt Q54764 1-231, looked up)
chain: T1 chain with E211A
notes: aldehyde-deformylating oxygenase (ADO), Synechococcus elongatus PCC 7942, gene Synpcc7942_1593; Made by PCR on pET24a-ADO; also called ADO E211A; source: E. coli BL21(DE3), purified (same protocol as wild-type ADO); not shown: His6, C-terminal, cleaved
- Kd [5]: 2.8 ± 0.85 µM

B5: ADO E196A/E200A/D201A (protein)
chain: T1 chain with E196A, E200A, D201A
modifications: left off: His6, C-terminal, cleaved
- binding of ADO mutant with AAR (in words) (AAR): completely lose their capability to bind AAR; also recorded: completely abolished the capability of ADO to bind with AAR
- yield of octadecanal compared with the wild type ADO reaction system (in words) ([3]; AAR incubated with wild type or triple mutant ADO): similar

B6: ADO E200A/D201A (protein)
chain: T1 chain with E200A, D201A
modifications: left off: His6, C-terminal, cleaved
- binding of ADO mutant with AAR (in words) (AAR): completely lose their capability to bind AAR; also recorded: completely abolished the capability of ADO to bind with AAR

B7: AAR R73A (protein)
chain: T2 sequence (looked up) with R73A
modifications: left off: His6, C-terminal, cleaved
- binding of AAR mutant with ADO (in words) (ADO): abolish the binding capability with ADO

B8: AAR R79A (protein)
chain: T2 sequence (looked up) with R79A
modifications: left off: His6, C-terminal, cleaved
- binding of AAR mutant with ADO (in words) (ADO): abolish the binding capability with ADO

B9: AAR K80A (protein)
chain: T2 sequence (looked up) with K80A
modifications: left off: His6, C-terminal, cleaved
- binding of AAR mutant with ADO (in words) (ADO): abolish the binding capability with ADO

B10: AAR Y247F: AAR single mutant Y247F (protein)
chain: T2 sequence (looked up) with Y247F
modifications: left off: His6, C-terminal, cleaved
- binding of AAR mutant with ADO (in words) (ADO): almost the same as that of AAR wild type
- Octadecanal yield [1]: 61.1 ± 6.76 µg/mL
- Octadecanal yield, EVERAGE ([1]; source data of Table 3, +K+): 61.0928
- Octadecanal yield, single data (data1-data4) ([1]; source data of Table 3, +K+): 68.55 and 59.38 and 55.3483
- binding of AAR mutant with stearoyl-CoA (in words) [2]: decreased binding affinity
- binding of AAR mutant with stearoyl-CoA (in words) ([2]; listed as Y247F mutant): reduced binding affinity with stearoyl-CoA

B11: ADO E196A (protein)
chain: T1 chain with E196A
modifications: left off: His6, C-terminal, cleaved
- binding of ADO mutant with AAR (in words) (AAR): significantly reduced binding affinity with AAR

B12: ADO E200A (protein)
chain: T1 chain with E200A
modifications: left off: His6, C-terminal, cleaved
- binding of ADO mutant with AAR (in words) (AAR): significantly reduced binding affinity with AAR

Reference: PMC7089970, “Structural insights into catalytic mechanism and product delivery of cyanobacterial acyl-acyl carrier protein reductase” (Nature Communications, 2020)
